Laboratory results from patent publication US6897294.

Biological target: flt(1,2,3): flt-1 Ig-like domains 1, 2 and 3 only fused to the Fc of IgG (human) [IgG part: P01857]
Assay: unlabeled VEGF titrated against 125I-VEGF165 binding to 1 ng immunoreactive flt(1, 2, 3) on anti-Fc plates; 4-parameter fit (FIG. 5)

vascular endothelial growth factor VEGF165, sequence (P15692 other isoform, or with tags, fused parts or gaps limits assumed): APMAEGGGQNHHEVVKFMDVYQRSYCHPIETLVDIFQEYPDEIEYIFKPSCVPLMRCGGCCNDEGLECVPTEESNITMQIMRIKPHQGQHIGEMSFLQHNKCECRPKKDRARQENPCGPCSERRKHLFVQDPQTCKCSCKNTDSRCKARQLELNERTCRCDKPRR

vascular endothelial growth factor VEGF165 (from UniProt P15692 27-191) (ligand)
IC50: 1.34 ng/mL
